Here are results for eight molecules from US20240174744A1 (SCIRHOM, published 2024).

The assay has as its target T1, hiR2-FL-P533-T7 (human iRhom2 full length with deletion of P533, 3 x T7 tag) (human, UniProt Q6PJF5 1-856).
T1 construct: The change is a deletion of one residue, not a substitution
T1 sequence: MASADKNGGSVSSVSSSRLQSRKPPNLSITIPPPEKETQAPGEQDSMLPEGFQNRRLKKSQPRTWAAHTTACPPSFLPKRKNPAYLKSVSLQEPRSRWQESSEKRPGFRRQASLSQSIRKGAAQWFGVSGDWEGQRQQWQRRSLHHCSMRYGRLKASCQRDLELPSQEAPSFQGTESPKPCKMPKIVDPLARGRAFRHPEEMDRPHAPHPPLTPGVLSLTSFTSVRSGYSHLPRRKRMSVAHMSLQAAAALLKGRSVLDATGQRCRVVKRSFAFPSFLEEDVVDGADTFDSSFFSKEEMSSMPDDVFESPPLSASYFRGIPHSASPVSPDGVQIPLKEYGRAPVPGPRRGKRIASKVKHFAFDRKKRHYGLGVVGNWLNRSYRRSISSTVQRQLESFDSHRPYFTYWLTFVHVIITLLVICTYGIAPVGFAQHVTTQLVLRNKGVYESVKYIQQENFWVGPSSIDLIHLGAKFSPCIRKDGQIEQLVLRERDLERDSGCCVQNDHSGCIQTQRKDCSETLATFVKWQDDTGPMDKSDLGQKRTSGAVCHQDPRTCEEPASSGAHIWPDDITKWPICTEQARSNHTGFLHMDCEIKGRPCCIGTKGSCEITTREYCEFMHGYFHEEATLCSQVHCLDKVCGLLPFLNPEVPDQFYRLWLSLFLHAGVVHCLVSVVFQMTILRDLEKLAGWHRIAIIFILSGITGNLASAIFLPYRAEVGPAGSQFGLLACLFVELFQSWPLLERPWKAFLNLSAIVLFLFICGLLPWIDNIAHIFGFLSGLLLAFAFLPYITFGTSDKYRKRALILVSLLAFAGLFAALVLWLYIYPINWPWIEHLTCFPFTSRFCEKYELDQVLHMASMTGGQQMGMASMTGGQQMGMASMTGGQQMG
The assay is described as follows: FACS on cells of the row P533-, vs human iR2 wild type = 100%. The source says:
In brief, immortalized MEF-DKO-hiR2-FL-WT-T7 cells, MEF-DKO-miR2-FL-WT-T7 cells and MEF-DKO-hiR2-FL-R441K-T7, MEF-DKO-hiR2-FL-K443R-T7, MEF-DKO-hiR2-FL-V459I-T7, MEF-DKO-hiR2-FL-G481Q-T7, MEF-DKO-hiR2-FL-L488R-T7, MEF-DKO-hiR2-FL-L493I-T7, MEF-DKO-hiR2-FL-D496T-T7, MEF-DKO-hiR2-FL-H505R-T7, MEF-DKO-hiR2-FL-Q512L-T7, MEF-DKO-hiR2-FL-R513K-T7, MEF-DKO-hiR2-FL-D528N-T7, MEF-DKO-hiR2-FL-P533-T7, MEF-DKO-hiR2-FL-M534S-T7, MEF-DKO-hiR2-FL-G540S-T7, MEF-DKO-hiR2-FL-R543Q-T7, MEF-DKO-hiR2-FL-T544P-T7, MEF-DKO-hiR2-FL-G546A-T7, MEF-DKO-hiR2-FL-A547V-T7, MEF-DKO-hiR2-FL-R582Q-T7, MEF-DKO-hiR2-FL-F588L-T7, MEF-DKO-hiR2-FL-M591I-T7, MEF-DKO-hiR2-FL-E594K-T7, MEF-DKO-hiR2-FL-E626D-T7, MEF-DKO-hiR2-FL-L657I-T7, and MEF-DKO-hiR2-FL-H835Y-T7 cells were harvested with 10 mM EDTA in PBS, washed and resuspended in FACS buffer (PBS, 3% FBS, 0.05% sodium azide), and seeded in Nunc U-bottom 96-well plates (Thermo Fisher Scientific, USA) at approximately 3×10⁵ cells per well. To pellet cells and remove supernatants, the plates were centrifuged at 1,500 rpm and 4° C. for 3 minutes. For primary staining, cells were resuspended in 100 μl per well of either FACS buffer alone (controls) or the purified antibodies 3, 5, 16, 22, 34, 42, 43, 44, 48, and 50 of the present disclosure at 3 μg/ml FACS buffer and incubated on ice for 1 hour. Afterwards, plates were centrifuged at 1,500 rpm and 4° C. for 3 minutes and washed twice with 200 μl per well of FACS buffer. For secondary staining, cells were spun down and resuspended in 100 μl per well of PE-conjugated goat anti-mouse IgG F(ab′)2 detection fragment (Dianova, Germany) diluted 1:100 in FACS buffer. Protected from light, the cell suspensions were incubated on ice for 1 hour. Plates were then centrifuged at 1,500 rpm and 4° C. for 3 minutes and washed three times with 200 μl per well of FACS buffer. Finally, cells were resuspended in 150 μl per well of FACS buffer and analyzed using a BD Accuri™ C6 Plus flow cytometer (Becton Dickinson, Germany).

B1: antibody 16 (antibody, V domains shown)
VH: QVTLKESGPGILQPSQTLSLTCSFSGFSLSTFALGVGWIRQPSGRGLEWLAHIWWDDDKYYNPALKSRLTISKDTSKNHVFLKIANVDTADTATYYCARITTYYYGMDYWGQGTSVTVSS
VL: DIVLSQSPATLSVTPGDSVSLFCRASQSIGNHLHWYQQESHASPRLLIKYASQSISGIPSRFSGSGSGTDFTLSINSVETEDFGMYFCQQSYNWPLTFGAGTKLELK
notes: Mouse IgG, kappa light chain; also called clone #16; m16
In the case of B1, the “grade of loss of binding vs wild type” value was 3 grade (3 => 95% loss of binding vs wild type).

B2: antibody 3 (antibody, V domains shown)
VH: QVTLKESGPGILQPSQTLSLTCSFSGFSLTTFAMGIGWVRQPSGKGLEWLAHIWWDGEKYNNPVLKSRLTISKDTSKNQVFLRIANVDTPDTATYYCARISSIYYIIDNWGQGTSVTVSS
VL: DIVLTQSPATLSVTPGHSVSLSCRASQSISNNLHWYQKKSHESPRLLIKYVSQSISGIPSRFSGSGSGTDFTLSINSVETEDFGMYFCQQSYNWPLTFGAGTKLELK
notes: Mouse IgG, kappa light chain; also called clone #3; purified antibody 3
B2: the “grade of loss of binding vs wild type” value was 3 grade (3 => 95% loss of binding vs wild type).

B3: antibody 34 (antibody, V domains shown)
VH: QVTLKESGPGILQPSQTLSLTCSFSGFSLSTFSLGVGWIRQSSGKGLEWLAHIWWDDEKYYNPALKSRLTISKDTSKNQVFLKIANVDAADTATYYCARAYYSKSYYALDYWGQGTSVTVSS
VL: DIQMTQSPSSLSASLGERVSLTCRASQEISGYLSWLQQKPDGTIKRLIYAASTLDSGVPKRFSGSRSGSDYSLAISSLESEDFADYYCLQYANFPFTFGSGTKLEIK
notes: Mouse IgG, kappa light chain; also called clone #34; m34
As for B3, the “grade of loss of binding vs wild type” value is 3 grade (3 => 95% loss of binding vs wild type).

B4: antibody 43 (antibody, V domains shown)
VH: QVALKESGPGILQPSQTLSLTCSFSGFSLSTFGMGVGWIRQSSGKGLEWLANIWWDDDKYYNPALKSRLTISKDASKNQAFLKIANVDTADTATYYCARIGNYGSNYWYFDVWGTGTTVTVSS
VL: QIVLTQSPAIMSASPGERVTMTCSANSRISYMYWYQQKPGSSPRLLIYDTSNLASGVPVRFSGSGSGTSYSLTISRMEAEDAATYNCQQWSSYPLTFGAGTKLELK
notes: Mouse IgG, kappa light chain; also called clone #43
For the molecule B4, the “grade of loss of binding vs wild type” value is 3 grade (3 => 95% loss of binding vs wild type).

B5: antibody 42 (antibody, V domains shown)
VH: QVTLKESGPGILQPSQTLSLTCSLSGFSLSTFGRGVGWIRQPSGKGLEWLAHIWWDDEKYYNPALKSRLTISKDTSKNQVFLRIANVDTADTATYYCARIQNYGSNYWYFDVWGTGTTVTVSS
VL: LIVLTQSPAIMSASPGEKVTMTCGATSRISYMFWYQQKPGSSPRVLIYDTSNLASGVPVRFSGSGSGTSYSLTISRVEAEDVATYYCQQWNSYPLTFGAGTKLELK
notes: Mouse IgG, kappa light chain; also called clone #42; m42
Take B5: the “grade of loss of binding vs wild type” value was 3 grade (3 => 95% loss of binding vs wild type).

B6: antibody 5 (antibody, V domains shown)
VH: QVTLKESGPGILQPSQTLSLTCSFSGFSLSTFGMGVGWIRQPSGKGLEWLAHIWWDDEKYYNSALKSRLTISKATSKNQAFLKIANVDTADTATYYCARISNYGSNYWYFNVWGTGTTVTVSS
VL: QVVLTQSPALMSASPGEKVTMTCSAGSSVSCMYWYQQKPGSSPRVLIYDTSNLASGVPARFTGSGSGTSYSLTISRMEAEDAASYYCQQWNSYPLTFGAGTKLELK
notes: Mouse IgG, kappa light chain; also called clone #5; purified antibody 5
On to B6, for which the “grade of loss of binding vs wild type” value is 3 grade (3 => 95% loss of binding vs wild type).

B7: antibody 44 (antibody, V domains shown)
VH: QVTLKESGPGILQPSQTLSLTCSFSGFSLSTFGMGVGWIRQPSEKGLEWLAHIWWDDDKYYNPALKSRLTISKDTSKNQIFLKITNVDTAETATYYCSRIGNYGSNYWYFDVWGTGTTVTVSS
VL: QIVLTQSPAVMSASPGEKVTMTCTASSSVYYMYWYQQTPGSSPRLLIYDTSNLASGVPVRFSGSGSGTSYSLTISRMEAEDAATYYCQQWNTYPLTFGAGTKLELK
notes: Mouse IgG, kappa light chain; also called clone #44; m44
On to B7, for which the “grade of loss of binding vs wild type” value was 3 grade (3 => 95% loss of binding vs wild type).

B8: antibody 22 (antibody, V domains shown)
VH: QVTLKESGPGILQPSQTLSLTCSFSGFSLSTFGMGVGWIRQPSGKGLEWLAHIWWDDEKYYNSALKSRLTISKATSKNQVFLKIANVDTADTATYYCARISNYGSNYWYFNVWGTGTTVTVSS
VL: QVVLTQSPALMSASPGEKVTMTCSAGSSVSYMYWYQQKPGSSPRVLIYDTSNLASGVPARFTGSGSGTSYSLTISRMEAEDAATYYCQQWNSYPLTFGAGTKLELK
notes: Mouse IgG, kappa light chain; also called clone #22; m22
B8: the “grade of loss of binding vs wild type” value was 3 grade (3 => 95% loss of binding vs wild type).
